Results from the supplement of paper PMC9170038.

Test system: MS2 coat protein
Experiment: apparent KD of MS2 coat protein; designed switch direction (-1 OFF switch, 1 ON switch): -1; higher = weaker reporter binding
Summary of the method: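 For each design, the apparent KD is the median over clusters of curves fitted to normalised cluster fluorescence. Clusters held RNA switches with common flanks, transcribed on Illumina chips by stalled E. coli RNA polymerase. These were titrated with SNAP-549-labelled MS2 coat protein, doubling from 0.7 or 1.5 nM to 3 µM, without input, with 200 uM small-molecule ligand, or with an oligonucleotide input.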

[1] = Eterna round: R95, input ligand: FMN 200 uM
[2] = Eterna round: R95, input ligand: microRNA oligo, concentration not stated
[3] = Eterna round: R95, input ligand: none
[4] = input ligand: microRNA oligo, concentration not stated

Row | Sequence | apparent KD of MS2 coat protein [1] | apparent KD of MS2 coat protein [2] | apparent KD of MS2 coat protein [3] | apparent KD of MS2 coat protein (input ligand: FMN 200 uM) | apparent KD of MS2 coat protein (input ligand: none) | apparent KD of MS2 coat protein [4]
1 | AAGAAACAUGAGGAUCACCCAUGUGAGGAUAUAGAAAAGAAAGAAAGAAAGAAAGAAACUAGAAGGCACAAAGA [It's All Mine] (puzzle: Exclusion 1) | 0.0246 µM | 0.0392 µM | 0.0261 µM | – | – | –
2 | UGAACAUGUGUCAGGAUAUCUGAUGUAAGUUAAUCGGAGAAGGGACAUGAGGAUCACCCAUGUCGUCGAAAGAU [Eternabot (L2) Solution 40] (Eterna round: R97, puzzle: Brourd's mod of Exclusion 4) | – | – | – | 0.0193 µM | 0.0155 µM | –
3 | UUUUGAUGAGGAUAUCGAGGUUAGUACAUGAGGAUCACCCAUGUUAUCCAGGUGUCGGUUCGAGAAGGUAUUGGAC [LRO-Ex5-16] (puzzle: Exclusion 5) | – | 0.016 µM | – | – | – | –
4 | CAUAUUGUAGGAUAUAUUCGAAAGGUCCUCUUCCCAUACCGACAUGAGGAUCACCCAUGUAGAAGGAUAGUGCC [Eternabot (L2) Solution 13] (Eterna round: R97, puzzle: Exclusion 2) | – | – | – | 0.0489 µM | 0.0536 µM | –
5 | AGUACUAACACGAUAGUGUUAGUACAAUAAGCUUGUGUUACAUGAGGAUCACCCAUGUCCUCAUAAGCUCGUCUUAA [Mat - Sensor v3 - Turn-off var 2 - D59] (puzzle: Sensor v3, turn-off variant 2) | 0.0443 µM | 0.594 µM | 0.0353 µM | – | – | –
6 | AAUUAGUAUGUGAGGAUAUUGACGGAAUGACUUGUUAAGAAGGCACAUGAGGAUCACCCAUGUGGGAAGUCACG [JR_BMEx4_Sub012] (Eterna round: R97, puzzle: Brourd's mod of Exclusion 4) | – | – | – | 0.0571 µM | 0.0181 µM | –
7 | UUUUUACAUGAGGAUCACCCAUGUGAGGAUAUGGAGCGCGACCGCGCGGUCGCGUACACCAGAAGGCGCAGGAU [1st #76] (Eterna round: R97, puzzle: Exclusion 1) | – | – | – | 0.0897 µM | 0.0466 µM | –
8 | UCGUUGUAAAUCAGGUGAUGUCUGUUAGGAUGGACUUUGACAUGAGGAUCACCCAUGUUGCUUUUUGCCCGUCUUAA [JR_SV3TOV2_Sub045] (puzzle: Sensor v3, turn-off variant 2) | 0.0336 µM | 0.0685 µM | 0.0384 µM | – | – | –
9 | CGAACUGUCUAGGAUAUACUCCCAUGCAGUUGAGUAGAAGGAGACACAUGAGGAUCACCCAUGUGACCCGAAGU [EX6 C.12] (Eterna round: R97, puzzle: Exclusion 6) | – | – | – | 0.0253 µM | 0.0197 µM | –
10 | GAUCAACAUGAGGAUCACCCAUGUGAGGAUAUGAUACUAUGUACUUCGGUACAUAGUAUCAGAAGGCACAUUGA [Ex1-3: 42] (puzzle: Exclusion 1) | – | 0.0909 µM | – | – | – | –
11 | AGUGCGUAUGUGAGGAUAUGCUGGUCCUUGGCUCGGCAGAAGGCACAUGAGGAUCACCCAUGUGGUGUCGUACU [salish99_Bmod_ex4_066] (puzzle: Brourd's mod of Exclusion 4) | – | 0.148 µM | – | – | – | –
12 | UAAGCUCUGUCAGGAUAUCCCUGUAAACGCAACGGAGAAGGGACAUGAGGAUCACCCAUGUGCGGGCCCAACGCGCUUGGGUCC [Gelaisve] (Eterna round: R96, puzzle: Exclusion NG 1) | – | – | – | 0.0566 µM | 0.0263 µM | 0.0206 µM
13 | AGUACUAACACGAAAGUGUUAGUACAAUAAGCUUGUGAAACAUGAGGAUCACCCAUGUCCUCAUACGCUCGUCUUAU [salish99_TOv2_r3_055] (puzzle: Sensor v3, turn-off variant 2) | 0.5 µM | 0.789 µM | 0.655 µM | – | – | –
14 | UUUUUAUAUGAAGGAUAUACUUAACAUGAGGAUCACCCAUGUGGUGUUGUGAGUGAGUGAGUUUAGUAGAAGGUCAAUGAUUUC [JMF's solution 64] (Eterna round: R96, puzzle: Exclusion NG 2) | – | – | – | 0.764 µM | 0.439 µM | 0.382 µM
15 | CACCGUUACAGAGGAUAUGGUACAUGAGGAUCACCCAUGUAAUAAAUGAGAAUUUCGAAUGUAAUCCAGAAGGCUGGAAUCGGC [Ostricism 74 - Jieux - Exclusion NG 2] (Eterna round: R96, puzzle: Exclusion NG 2) | – | – | – | 0.228 µM | 0.0963 µM | 0.0852 µM
16 | AAUGUGUGAGGAUAUUAGUUGUACGUCAAUAGACGUAUAAGUGAGAAGGCACAUGAGGAUCACCCAUGUUCCUG [Omei Ex4 Mod of Mat's R95 mod of Omei v6] (Eterna round: R97, puzzle: Exclusion 4) | – | – | – | 0.109 µM | 0.0249 µM | –
17 | GAAUAGGCAGGAUAUACAUGAGGAUCACCCAUGUGCUUGCGCUAGGCACGUGAACAACGUAGAAGGGCCUAGAC [ChP 13.04.2015 #11] (puzzle: Exclusion 3) | – | 0.0121 µM | – | – | – | –

Row | Sequence | apparent KD of MS2 coat protein [1] | apparent KD of MS2 coat protein [2] | apparent KD of MS2 coat protein [3] | apparent KD of MS2 coat protein (input ligand: FMN 200 uM) | apparent KD of MS2 coat protein (input ligand: none) | apparent KD of MS2 coat protein [4]
18 | AGUAACUAUCACGAAAGUGAUAGUUACACAAGCAGUGGAACAUGAGGAUCACCCAUGUCCUCAUUUGCUCGUCUUAU [Sensor 3 - 27] (puzzle: Sensor v3, turn-off variant 2) | 0.0355 µM | 0.0196 µM | 0.0422 µM | – | – | –
19 | CCGUAACAUGAGGAUCACCCAUGUCAGGAUAUUCCAAAAUCGUCGAAAGACGAUAACAGAAGAAGGGACAACGG [Fiskxlusion 2 - Jieux - Exclusion 1] (Eterna round: R97, puzzle: Exclusion 1) | – | – | – | 0.0476 µM | 0.0289 µM | –
20 | AAGAGGAUCAAAGGAUAUGGAGCUGAAACGGCGCUAGAAGGUUGUCCAGUGUAACAUGAGGAUCACCCAUGUAGGGACCUCUAA [AK ExNG1-V2-3] (Eterna round: R96, puzzle: Exclusion NG 1) | – | – | – | 0.1 µM | 0.0429 µM | 0.0575 µM
21 | UUUUCCUGGCAAGGAUAUCCUGUGCGGUUCCGGCUCGUGUCUGUUACAUGAGGAUCACCCAUGUGGGAGAAGGUGCCUGUGGUU [Design 89] (Eterna round: R96, puzzle: Exclusion NG 2) | – | – | – | 0.272 µM | 0.0417 µM | 0.0343 µM
22 | GACGUGUAAGGAUAUGAUGUUGCAAACAAGACCCUUAAUCAUUAGAAGGUACAUGAGGAUCACCCAUGUAGGGU [Eternabot (L2) Solution 100] (Eterna round: R97, puzzle: Exclusion 4) | – | – | – | 0.129 µM | 0.14 µM | –
23 | AGCUGUGGCCGAGGAUAUGACAUGAGGAUCACCCAUGUACGUAAUUAGGCCUGGUAACAGGCUCGUCAGAAGGCGGUCUCAGCA [Eli eng2 - 008] (Eterna round: R96, puzzle: Exclusion NG 2) | – | – | – | 0.0122 µM | 0.0153 µM | 0.00743 µM
24 | UAUAUAUAGUAAGGAUAUGUAAUUAAUUUAUAAACAGAAGGUACUGACAUGAGGAUCACCCAUGUUUUAGUGUGGGCAUGUAGA [JMF's solution 35] (Eterna round: R96, puzzle: Exclusion NG 1) | – | – | – | – | – | 0.0716 µM
25 | ACAUGACUGCUAGGAUAUAGAUGACAUGAGGAUCACCCAUGUUAUCCCAUGUUGAUGGAAACCGACUAGAAGGAGCAGCAUAUG [Ex NG2 #10] (Eterna round: R96, puzzle: Exclusion NG 2) | – | – | – | 0.0534 µM | 0.033 µM | 0.0243 µM
26 | AAAAUAAUAAGUUUACGAACAUUUAGAAAAAGGGAUCCAACAUGAGGAUCACCCAUGUAUUAUCAGCAUAAACCCUA [JR_Sensorv2_tov2_Sub1270] (Eterna round: R96, puzzle: Sensor v2, turn-off variant 2) | – | – | – | 0.341 µM | 0.36 µM | 0.27 µM
27 | GGGUGCAAGCUAAGAUCCUACAUGAGGAUCACCCAUGUGGUCCGGUGACGUGAGUCACCGGACUUAGCUCGUCUUGU [salish99_S_TOV1_R5_004] (Eterna round: R97, puzzle: Sensor, turn-off variant 1) | – | – | – | 0.0912 µM | 0.0956 µM | –
28 | CCUUUGUCAGGAUAUCAGAACGCGCUCGUAGGGAGCGCGAAUGAGAAGGGACAUGAGGAUCACCCAUGUAAAGA [Soedes] (puzzle: Exclusion 4) | – | 0.0743 µM | – | – | – | –
29 | AACUGUCUAAAGGAUAUGCUGGAUUAAUAUCUGGCAGAAGGUUAGACAUGAGGAUCACCCAUGUAAAUACCACC [Omei Ex6 A10] (Eterna round: R97, puzzle: Exclusion 6) | – | – | – | 0.106 µM | 0.0195 µM | –
30 | CUCGUGCAGCAAAGCUGUACGAGUACAUGAGGAUCACCCAUGUAGGAUAUGGUACGCAAAGCGUGCUAGAAGGACGUGUGUAAG [Mat - Exclusion NG 3 - Mod of JL - D92] (Eterna round: R96, puzzle: Exclusion NG 3) | – | – | – | 0.118 µM | 0.0477 µM | 0.0334 µM
31 | AACCUAGUCAUAGGAUAUACAGGCAAAGCCAAAGUAGAAGGAUGACACAUGAGGAUCACCCAUGUGGUCCUUGAACAAAAUAAC [Esatier] (Eterna round: R96, puzzle: Exclusion NG 1) | – | – | – | – | – | 0.0241 µM
32 | AAUGUCUGAGGAUAUCGUUUUUUGUACAUGAGGAUCACCCAUGUUUUAUUUUGUAUAUUACGAGAAGGCAGUGGAA [JR_E5_Sub088] (puzzle: Exclusion 5) | – | 0.0227 µM | – | – | – | –
33 | GCACUGACAGGAUAUACAUGAGGAUCACCCAUGUGACCCUUAUAGUACUCGCGUACUAGUAGAAGGGUCUGUGC [Omei Ex3 Model Bachelor's Dilema v33] (Eterna round: R97, puzzle: Exclusion 3) | – | – | – | 0.324 µM | 0.0594 µM | –
34 | AUUUAGAGAGGAUAUAUAAUGUGAAACAUGAGGAUCACCCAUGUAAUAUUAUGGAUGUAAAUAGAAGGCUCAUUUA [Mat - Exclusion 5 - JL mod - D5] (puzzle: Exclusion 5) | – | 0.0302 µM | – | – | – | –
